Source: US20200371101A1
Each block holds one substance with its values, some of them ahead of it.

What was measured:
[1] = biological target: His-tagged IDO1 human recombinant protein (71182, BPS Biosciences) (human) (UniProt P14902); test: ELISA: biotin-PEG3 macrocycle on NeutrAvidin plate, His-tagged human IDO1 titrated, AP-conjugated anti-6XHis antibody, fluorescence
[2] = biological target: murine IDO1 protein (mouse) (UniProt P28776); test: ELISA, immobilized macrocycle, mouse IDO1 titrated
[3] = biological target: His-tagged IDO1 human recombinant protein (71182, BPS Biosciences) (human) (UniProt P14902); test: sandwich ELISA: biotinylated macrocycle on NeutrAvidin plate, His-tagged IDO1 titrated, anti-6XHis-AP detection
[4] = biological target: His-tagged IDO1 human recombinant protein (71182, BPS Biosciences) (human) (UniProt P14902); test: ELISA: biotinylated peptide on NeutrAvidin plate, 6xHis-tagged human IDO1 titrated
[5] = biological target: His-tagged IDO1 human recombinant protein (71182, BPS Biosciences) (human) (UniProt P14902); test: ELISA, immobilized macrocycle, human IDO1 titrated
[6] = biological target: His-tagged IDO1 human recombinant protein (71182, BPS Biosciences) (human) (UniProt P14902); test: cell-based or functional assay
[7] = biological target: His-tagged IDO1 human recombinant protein (71182, BPS Biosciences) (human) (UniProt P14902); test: binding analysis, method not named
[8] = biological target: His-tagged IDO1 human recombinant protein (71182, BPS Biosciences) (human) (UniProt P14902); test: sandwich ELISA: 200 nM biotinylated macrocycle immobilized on NeutrAvidin plate, His-tagged IDO1 titrated, anti-6XHis-AP detection

Sequence of murine IDO1 protein (mouse) (P28776 2-406 limits assumed): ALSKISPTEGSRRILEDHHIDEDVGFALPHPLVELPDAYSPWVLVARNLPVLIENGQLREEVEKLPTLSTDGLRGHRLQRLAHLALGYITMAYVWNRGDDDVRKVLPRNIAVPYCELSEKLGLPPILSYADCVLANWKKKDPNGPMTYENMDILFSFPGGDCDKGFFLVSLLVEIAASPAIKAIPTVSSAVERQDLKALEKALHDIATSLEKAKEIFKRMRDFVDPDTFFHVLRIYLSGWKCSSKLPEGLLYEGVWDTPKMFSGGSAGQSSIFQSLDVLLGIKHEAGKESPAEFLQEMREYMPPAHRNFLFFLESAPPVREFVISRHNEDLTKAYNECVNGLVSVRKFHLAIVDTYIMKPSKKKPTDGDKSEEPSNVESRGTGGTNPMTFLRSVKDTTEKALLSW
Sequence of His-tagged IDO1 human recombinant protein (71182, BPS Biosciences) (human) (P14902 2-403 limits assumed): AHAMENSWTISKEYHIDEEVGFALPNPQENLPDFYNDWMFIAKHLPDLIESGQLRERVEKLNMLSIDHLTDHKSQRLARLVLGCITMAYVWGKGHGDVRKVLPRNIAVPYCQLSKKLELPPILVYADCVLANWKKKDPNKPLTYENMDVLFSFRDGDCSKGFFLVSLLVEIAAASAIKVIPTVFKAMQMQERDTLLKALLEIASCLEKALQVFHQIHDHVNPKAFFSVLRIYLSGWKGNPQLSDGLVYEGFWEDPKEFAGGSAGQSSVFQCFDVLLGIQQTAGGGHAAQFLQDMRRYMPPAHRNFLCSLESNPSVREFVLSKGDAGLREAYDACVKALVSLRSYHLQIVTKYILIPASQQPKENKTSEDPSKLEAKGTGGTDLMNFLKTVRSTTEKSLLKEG

EC50 [1]: 79 nM
Substance: Biotin-PEG3-Cy(arf(Me-Trp)s) (peptide)

EC50 [1]: 12 nM
Substance: Biotin-PEG3-Cy(frf(Me-Trp)) (peptide)

EC50 [1]: 57 nM
Substance: Biotin-PEG3-Cy(frf(Me-Trp)a) (peptide)

EC50 [1]: 39 nM
Substance: Biotin-PEG3-Cy(lf(Me-Trp)(F-Phe)) (peptide)

EC50 [1]: 42 nM
Substance: Biotin-PEG3-Cy(saww(F-Phe)) (peptide)

EC50 [1]: 111 nM
Substance: Biotin-PEG3-Cy(spaw(F-Phe)) (peptide)

EC50 [1]: 70 nM
Substance: Biotin-PEG3-Cy(sww(F-Phe)) (peptide)

EC50 [1]: 50 nM
Substance: alf(Me-Trp)(F-Phe) (peptide)

EC50 [1]: 106 nM
Substance: apww(F-Phe) (peptide)

EC50 [2]: 36 nM
EC50 [3]: 20 nM
EC50 [4]: 20 nM
EC50 [5]: 18 nM
IC50, IDO1 Fluorogenic Inhibitor Screening Assay (enzyme inhibition) [6]: > 40000 nM
Substance: biotin-PEG3-Cy(frf(Me-Trp)s) (peptide)

EC50 [2]: 89 nM
EC50 [3]: 20 nM
EC50 [5]: 19 nM
EC50 [7]: 44 nM
Substance: biotin-PEG3-Cy(nlf(Me-Trp)(F-Phe)) (peptide)

EC50 [2]: 48 nM
EC50 [3]: 43 nM
EC50 [5]: 51 nM
Substance: biotin-PEG3-Cy(nlw(Me-Trp)r) (peptide)

EC50 [3]: 124 nM
EC50 [4]: 124 nM
Substance: biotin-PEG3-Cy(nsfr(Me-Trp)) (peptide)

EC50 [3]: 68 nM
Substance: biotin-PEG3-Cy(nsh(F-Phe)r) (peptide)

EC50 [2]: 17 nM
EC50 [5]: 91 nM
EC50 [8]: 81 nM
IC50, IDO1 Fluorogenic Inhibitor Screening Assay (enzyme inhibition) [6]: > 40000 nM
Substance: biotin-PEG3-Cy(rys(Me-Trp)r) (peptide)

EC50 [2]: 44 nM
EC50 [3]: 65 nM
EC50 [5]: 85 nM
IC50, IDO1 Fluorogenic Inhibitor Screening Assay (enzyme inhibition) [6]: > 40000 nM
Substance: biotin-PEG3-Cy(spww(F-Phe)) (peptide)

EC50 [1]: 107 nM
Substance: fra(Me-Trp)s (peptide)

EC50 [1]: 128 nM
Substance: n-f(Me-Trp)(F-Phe) (peptide)

EC50 [1]: 82 nM
Substance: naf(Me-Trp)(F-Phe) (peptide)

EC50 [1]: 116 nM
Substance: nla(Me-Trp)(F-Phe) (peptide)

EC50 [1]: 45 nM
Substance: nlf(Me-Trp) (peptide)

EC50 [1]: 104 nM
Substance: nlf(Me-Trp)a (peptide)

EC50 [1]: 69 nM
Substance: nlfa(F-Phe) (peptide)

EC50 [1]: 104 nM
Substance: pww(F-Phe) (peptide)

EC50 [1]: 144 nM
Substance: spww (peptide)

EC50 [1]: 111 nM
Substance: spwwa (peptide)
